The values below come from US20070148774A1 (MEDICAL RESEARCH COUNCIL, published 2007).

For one test, the target named is T1, hen egg-white lysozyme (hen, UniProt P00698 19-147).
T1 construct: also called HEL; hen egg lysozyme
Description: phage ELISA on plates coated with HEL; signal on BSA subtracted. (In general: In an ELISA, binding on a coated surface is turned into a signal by an enzyme label.)

Test [1] deals with T2, turkey egg-white lysozyme (turkey, UniProt P00703 19-147).
T2 construct: also called turkey egg lysozyme; turkey lysozyme
Description: phage ELISA on plates coated with TEL; signal on BSA subtracted.

The target of test [2] is T3, bovine serum albumin (bovine, UniProt P02769 25-607).
T3 construct: also called BSA
Description: phage ELISA (FIG. 51, clone 9).

The target of test [3] is T3, bovine serum albumin. Briefly: phage ELISA (FIG. 51, clone 3).
Test [4] addresses T3, bovine serum albumin. Description: phage ELISA, antigens coated at 200 µg/ml, average absorbance of duplicates after 10 minutes.
Description: (§1) 2×10¹⁰ phage transducing units were added to the antigen coated plates in phosphate buffered saline (PBS) containing 2% skimmed milk powder (MPBS). Plates were washed between each step with three rinses of 0.5% Tween-20 in PBS followed by three rinses of PBS.
ELISA plates were coated at 37° C. in 50 mM NaHCO3 at a protein concentration of 200 μg/ml.
For another test, the target named is T4, human lysozyme (human, UniProt P61626 19-148).
T4 construct: also called HUL
T4 sequence (looked up): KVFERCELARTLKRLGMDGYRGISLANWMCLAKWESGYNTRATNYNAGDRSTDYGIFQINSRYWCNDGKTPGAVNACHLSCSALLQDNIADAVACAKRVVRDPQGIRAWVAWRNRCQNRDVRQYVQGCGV
Briefly: phage ELISA, antigen coated at 1 mg/ml, sheep anti-M13 serum.

The target of test [5] is T3, bovine serum albumin. Briefly: phage ELISA (FIG. 51, clone 1).
Test [6] deals with T2, turkey egg-white lysozyme. Briefly: phage ELISA on turkey egg white lysozyme after 4 rounds of selection.

T3 sequence (P02769 25-607 limits assumed): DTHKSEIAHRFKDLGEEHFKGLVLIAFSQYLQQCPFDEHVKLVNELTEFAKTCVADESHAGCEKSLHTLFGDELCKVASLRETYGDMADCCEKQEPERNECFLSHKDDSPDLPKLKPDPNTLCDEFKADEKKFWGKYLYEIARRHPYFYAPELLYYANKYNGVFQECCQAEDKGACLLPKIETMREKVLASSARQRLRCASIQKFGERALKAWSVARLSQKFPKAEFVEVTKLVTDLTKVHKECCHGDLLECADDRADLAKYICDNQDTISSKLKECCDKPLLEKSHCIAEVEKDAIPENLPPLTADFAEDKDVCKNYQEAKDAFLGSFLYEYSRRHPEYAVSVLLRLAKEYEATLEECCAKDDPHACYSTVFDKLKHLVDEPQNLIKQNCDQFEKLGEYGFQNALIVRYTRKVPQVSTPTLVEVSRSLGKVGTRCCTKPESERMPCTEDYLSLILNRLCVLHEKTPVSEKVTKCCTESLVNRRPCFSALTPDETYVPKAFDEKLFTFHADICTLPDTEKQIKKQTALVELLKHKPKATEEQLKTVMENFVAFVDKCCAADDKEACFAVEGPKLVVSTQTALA
T2 sequence (P00703 19-147): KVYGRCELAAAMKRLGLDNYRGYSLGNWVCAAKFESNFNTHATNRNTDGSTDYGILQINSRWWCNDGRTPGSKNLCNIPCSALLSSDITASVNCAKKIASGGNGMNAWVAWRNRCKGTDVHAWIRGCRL
T1 sequence (P00698 19-147 limits assumed): as the sequence (P00703 19-147) above, with Y3F, L15H, H41Q, K73R, A99V, G101D, H121Q counted along it
Description for human lysozyme: Before use, this solution was removed, the plate rinsed several times in PBS and incubated with 200 ul of 2% milk powder/PBS for 1 hour. After rinsing several times with PBS, 100 ul of the test samples were added and incubated for 1 hour. Plates were washed (3 rinses in 0.05% Tween 20/PBS followed by 3 rinses in PBS alone). Bound phage antibodies were detected by adding 200 ul/well of a 1/1000 dilution of sheep anti-M13 polyclonal antiserum (gift from G. Winter, although an equivalent antibody can be readily made by one skilled in the art using standard methodologies) in 2% milk powder/PBS and incubating for 1 hour. After washing as above, plates were incubated with biotinylated anti-sheep antibody (Amersham International) for 30 minutes. Plates were washed as above, and incubated with streptavidin-horseradish peroxidase complex (Amersham International).
as §1

B1: clone M21 (clone 9 of FIG. 51): scFv of D1.3 VH with a light chain selected from the VLK library of an unimmunised mouse (scFv)
scFv: QVQLQESGPGLVAPSQSLSITCTVSGFSLTGYGVNWVRQPPGKGLEWLGMIWGDGNTDYNSALKSRLSISKDNSKSQVFLKMNSLHTDDTARYYCARERDYRLDYWGQGTTVTVSSGGGGSGGGGSGGGGSDIELTQSPALMAASPGEKVTITCSVSSSISSSNLHWYQQKSETSPKPWIYGTSNLASGVPVRFSGSGSGTSYSLTISSMEAEDAATYYCQQWSSYPLTFGAGTKLEIKR
notes: not shown: fd gene III protein (g3p), the phage display partner fused after the scFv through the NotI AAA junction
Turning to B1, the binding result in the test with hen egg-white lysozyme is “binds”; in test [1], “binds”; with bovine serum albumin [2], “no binding”.

B2: clone MF1 (clone 3 of FIG. 51): scFv of D1.3 VH with a light chain selected from the VLK library of an unimmunised mouse (scFv)
scFv: QVQLQESGPGLVAPSQSLSITCTVSGFSLTGYGVNWVRQPPGKGLEWLGMIWGDGNTDYNSALKSRLSISKDNSKSQVFLKMNSLHTDDTARYYCARERDYRLDYWGQGTTVTVSSGGGGSGGGGSGGGGSDIELTQSPSSLSASLGERVSLTCRASQDIGSSLNWLQQEPDGTIKRLIYATSSLDSGVPKRFSGSRSGSDYSLTISSLESEDFVDYYCLQYASSPWTFGGGTKLELKR
notes: also called M1F; D1.3 M1F; not shown: fd gene III protein (g3p), the phage display partner fused after the scFv through the NotI AAA junction
With B2, the values for the binding result (with hen egg-white lysozyme; in test [1]; with bovine serum albumin [3]) were “binds”, “binds” and “no binding”, respectively.

B3: fdTscFvD1.3 (phage antibody displaying the single chain Fv of anti-lysozyme antibody D1.3) (scFv, not shown: large carriers)
scFv: QVQLQESGPGLVAPSQSLSITCTVSGFSLTGYGVNWVRQPPGKGLEWLGMIWGDGNTDYNSALKSRLSISKDNSKSQVFLKMNSLHTDDTARYYCARERDYRLDYWGQGTTVTVSSGGGGSGGGGSGGGGSDIELTQSPASLSASVGETVTITCRASGNIHNYLAWYQQKQGKSPQLLVYYTTTLADGVPSRFSGSGSGTQYSLKINSLQPEDFGSYYCQHFWSTPRTFGGGTKLEIK
modifications: scFv displayed on fd phage as a fusion near the N-terminus of g3p
notes: also called pAb D1.3; pAb (D1.3)
As for B3, the binding result in the test with bovine serum albumin [4] is listed as “no binding (tested: one amount, as in example 6)”; with human lysozyme it was “no binding”.

B4: fdCAT2 scFvD1.3 phage (scFv, not shown: large carriers)
scFv: B3 scFv
modifications: scFv displayed on fd phage as an N-terminal fusion to g3p
notes: also called original D1.3 scFv
As to B4, in the test with bovine serum albumin [5], the binding result is “no binding”.

B5: lysozyme binder scFv from the unimmunized human library (VH13.1 / VL13.1), on phage (scFv, V domains shown)
VH: QVQLVQSGAEVKKPGQSLMISCQGSGYSFSNYWIGWVRQMPGKGLEWMGIIYPGDSDTRYSPSFQGQVTISADKSISTAYLHWSSLKASDTALYYCARLVGGTPAYWGQGT
VL: HVILTQPASVSGSPGQSITISCTGSSRDVGGYNYVSWYQHHPGKAPKLLISEVTNRPSGVSNRFSGSKSGNTASLTISGLQAEDEADYFCASYTSSKTYVFGG
notes: scFv with (Gly4Ser)3 linker on pHEN1 phagemid particles
Turning to B5, in test [6], the binding result was “binds”.
